According to US11653679B2, “High-purity steviol glycosides” (PureCircle Sdn Bhd, priority 2014, dated 2023):

Tests used:
Type in all cases: biochemical
[1] = Activity for Stevioside to Rebaudioside E conversion with UGTSL, UGTSL2, UGTLB (Examples 28, 32); details: reaction time UGTSL 22 h., UGTSL2 2 h., 600 μL lysate, based on initial concentration of Stevioside
Method: Activity tests were performed at 3 mL scale with 600 μL of lysate for the transformation of Stevioside using 0.5 mM of substrate, 2.5 mM of UDP-Glucose and 3 mM MgCl2 in 50 mM Sodium Phosphate buffer at pH 7.2. Samples were taken and analyzed by HPLC. HPLC Analysis. The HPLC assay was performed as described in EXAMPLE 20.
Activity tests were performed at 3 mL scale with 600 μL of lysate for the transformation of Stevioside using 0.5 mM of substrate, 2.5 mM of UDP-Glucose and 3 mM MgCl2 in 50 mM Sodium Phosphate buffer at pH 7.2. Samples were taken and analyzed by HPLC. The corresponding chromatograms are depicted in FIG. 63a.

[2] = Activity for Rubusoside to Rebaudioside E conversion with UGTSL, UGTSL2, UGTLB (Examples 29, 32); details: reaction time UGTSL 45 h., UGTSL2 2 h., 600 μL lysate, based on initial concentration of Rubusoside
Method: Activity tests were performed at 3 mL scale with 600 μL of lysate for the transformation of Rubusoside using 0.5 mM of substrate, 2.5 mM of UDP-Glucose and 3 mM MgCl2 in 50 mM Sodium Phosphate buffer at pH 7.2. Samples were taken and analyzed by HPLC. The HPLC assay was performed as described in EXAMPLE 20.
Activity tests were performed at 3 mL scale with 600 μL of lysate for the transformation of Rubusoside using 0.5 mM of substrate, 2.5 mM of UDP-Glucose and 3 mM MgCl2 in 50 mM Sodium Phosphate buffer at pH 7.2. Samples were taken and analyzed by HPLC. The corresponding chromatograms are depicted in FIG. 63b.

[3] = Activity for Rebaudioside A to Rebaudioside D conversion with UGTSL2, UGTLB (Examples 30, 32); details: 23 h., 60 μL lysate, based on initial concentration of Rebaudioside A
Method: Activity tests were performed at 3 mL scale with 60 μL of lysate for the transformation of Rebaudioside A using 0.5 mM of substrate, 2.5 mM of UDP-Glucose and 3 mM MgCl2 in 50 mM Sodium Phosphate buffer at pH 7.2. Samples were taken and analyzed by HPLC. The HPLC assay was performed as described in EXAMPLE 20.
Activity tests were performed at 3 mL scale with 600 μL of lysate for the transformation of Rebaudioside A using 0.5 mM of substrate, 2.5 mM of UDP-Glucose and 3 mM MgCl2 in 50 mM Sodium Phosphate buffer at pH 7.2. Samples were taken and analyzed by HPLC. The corresponding chromatogram after 23 h. of reaction is depicted in FIG. 63c.

[4] = Rubusoside conversion products with UGTSL, UGTSL2, UGTLB by LCMS (Example 33); details: reaction time UGTSL2 2 hrs, UGTLB 5 hrs, UGTSL 45 hrs
Method: (§1) Conversion of stevioside with UGTSL and UGTSL2 was conducted in similar manner to Example 28, and the conversion of rubusoside with UGTSL and UGTSL2 was conducted similarly to Example 29. Conversions of rubusoside and stevioside with UGTLB was conducted similarly to Example 32.
(§2) The reaction mixtures were analyzed by LCMS to determine all reaction products.

[5] = Stevioside conversion products with UGTSL, UGTSL2, UGTLB by LCMS (Example 33); details: reaction time UGTSL2 2 hrs, UGTLB 2 hrs, UGTSL 22 hrs
Method: as §1, §2

[6] = Directed evolution of UGTSL2, Rebaudioside A to Rebaudioside D, round 1 (Example 45)
Method: Lysis was performed by addition of Bugbuster® Master mix (Novagen®) to the thawed cells and the lysate was recovered by centrifugation. […]
The reaction was allowed to run at 30° C. and samples were taken after 2, 4, 6 and 22 h. to determine the initial rate by HPLC (CAD detection) using the analytical method that was described above for the transformation of Rebaudioside A to Rebaudioside D. In parallel the experiments were performed with baseline clone, UGTSL2. The initial rate for this baseline clone was defined as 100%. As an indication of the specificity of the clones, Rebaudioside M2 content was determined at 100% UDP-Glucose conversion and Rebaudioside D2 content was determined at 50% UDP-Glucose conversion. Wherein UDP glucose conversion is defined as: ([Reb D]/[Reb A]0)+([Reb D2]/[Reb A]0)+2*([Reb M2]/[Reb A]0).
The normalized initial rate, Rebaudioside M2 content at 100% UDP-glucose conversion and Rebaudioside D2 content at 50% UDP-glucose conversion are depicted in the following table

[7] = Directed evolution of UGTSL2 round 2, initial rate for Rebaudioside A conversion (Example 48); details: UGTSL2 round 2 clone lysates, 0.5 mM Rebaudioside A, 30° C., pH 7.2; baseline clone UGTSL2 defined as 100%
Method: (§3) In order to measure the activity of the variants for the transformation of Rebaudioside A to Rebaudioside D, 100 μL of fresh lysate was added to a solution of Rebaudioside A (final concentration 0.5 mM), MgCl2 (final concentration 3 mM) and UDP-Glucose (final concentration 2.5 mM) in 50 mM phosphate buffer pH 7.2. The reaction was allowed to run at 30° C. and samples were taken after 2, 4, 6 and 22 h. to determine the initial rates after HPLC analysis (CAD detection) using the analytical method that was described above for the transformation of Rebaudioside A to Rebaudioside D.
(§4) Apart from the new variants, both experiments were also performed with baseline clone, UGTSL2. The initial rates for the conversion of Rebaudioside A or Rebaudioside D for this baseline clone were defined as 100%.
(§5) Activity of each clone was defined as normalized activity compared to baseline clone UGTSL2 whereas specificity of each clone was expressed as the ratio between the initial rates for the conversion of Rebaudioside A and Rebaudioside D.

[8] = Directed evolution of UGTSL2 round 2, initial rate for Rebaudioside D conversion (Example 48); details: UGTSL2 round 2 clones; specificity
Method: The reaction was allowed to run at 30° C. and samples were taken after 2, 4, 6 and 22 h. to determine the initial rates for Rebaudioside D conversion after HPLC analysis (CAD detection).
as §4, §5

[9] = Directed evolution of UGTSL2 round 3, initial rate for Rebaudioside A conversion (Example 53); details: UGTSL2 round 3 clone lysates, 0.5 mM Rebaudioside A, 30° C., pH 7.2; baseline clone UGTSL2 defined as 100%
Method: as §3
(§6) Apart from the new variants for this round, both experiments were also performed with baseline clone, UGTSL2. The initial rates for the conversion of Rebaudioside A or Rebaudioside D for this baseline clone were defined as 100%.
as §5

[10] = Directed evolution of UGTSL2 round 3, initial rate for Rebaudioside D conversion (Example 53); details: UGTSL2 round 3 clones; specificity
Method: In parallel 100 μL of fresh lysate was added to a solution of Rebaudioside D (final concentration 0.5 mM), MgCl2 (final concentration 3 mM) and UDP-Glucose (final concentration 2.5 mM) in 50 mM phosphate buffer pH 7.2. The reaction was allowed to run at 30° C. and samples were taken after 2, 4, 6 and 22 h. to determine the initial rates for Rebaudioside D conversion after HPLC analysis (CAD detection).
as §6, §5

[11] = 0.5 mM substrate, 2.5 mM UDP-Glucose, pH 7.2
[12] = UGTSL2 round 1 clones, indication of specificity

B1: UGTSL2: UDP-glucosyltransferase, Solanum lycopersicum, SEQ ID NO:9 (protein, listed as Solanum lycopersicum)
chain: MATNLRVLMFPWLAYGHISPFLNIAKQLADRGFLIYLCSTRINLESIIKKIPEKYADSIHLIELQLPELPELPPHYHTTNGLPPHLNPTLHKALKMSKPNFSRILQNLKPDLLIYDVLQPWAEHVANEQNIPAGKLLTSCAAVFSYFFSFRKNPGVEFPFPAIHLPEVEKVKIREILAKEPEEGGRLDEGNKQMMLMCTSRTIEAKYIDYCTELCNWKVVPVGPPFQDLITNDADNKELIDWLGTKHENSTVFVSFGSEYFLSKEDMEEVAFALELSNVNFIWVARFPKGEERNLEDALPKGFLERIGERGRVLDKFAPQPRILNHPSTGGFISHCGWNSAMESIDFGVPIIAMPIHNDQPINAKLMVELGVAVEIVRDDDGKIHRGEIAETLKSVVTGETGEILRAKVREISKNLKSIRDEEMDAVAEELIQLCRNSNKSK
Rebaudioside E formation ([1]; 0.5 mM Stevioside): 50%
Stevioside conv. (reaction time) [1, 11]: 77% (2 h.)
Rebaudioside E formation ([2]; 0.5 mM Rubusoside): 55%
Rubusoside conv. (reaction time) [2, 11]: 80% (2 h.)
Rebaudioside D formation ([3]; 0.5 mM Rebaudioside A): 75%
Rebaudioside A conv. (reaction time) [3, 11]: 78% (23 h.)
LC-MS, peak area ratio (%): REb E [4]: 52.88%
LC-MS, peak area ratio (%): Reb D [4]: 6.73%
LC-MS, peak area ratio (%): Rub [4]: 3.54%
LC-MS, peak area ratio (%): Stev [4]: 2.12%
LC-MS, peak area ratio (%): Unknown peak #1 (MW804) RT 30.70 min [4]: 12.02%
LC-MS, peak area ratio (%): Unknown peak #2 (MW804) RT 49.50 min [4]: 9.94%
LC-MS, peak area ratio (%): Unknown peak #3 (MW804) RT 50.40 min [4]: 12.77%
LC-MS, peak area ratio (%): Reb D [5]: 1.70%
LC-MS, peak area ratio (%): Reb E [5]: 42.56%
LC-MS, peak area ratio (%): Stev [5]: 20.01%
LC-MS, peak area ratio (%): Unknown peak #1 (MW966) RT = 22.60 min [5]: 4.48%
LC-MS, peak area ratio (%): Unknown peak #2 (MW966) RT = 26.50 min [5]: 5.56%
LC-MS, peak area ratio (%): Unknown peak #3 (MW966) RT = 29.50 min [5]: 25.70%
Normalized initial rate (0-4 h) ([6]; UGTSL2 round 1 clone lysates, 30° C., pH 7.2, HPLC (CAD), baseline clone UGTSL2 defined as 100%): 100%
Reb D2 content at 50% UDP-Glc conversion [6, 12]: 12.5%
Reb M2 content at 100% UDP-Glc conversion [6, 12]: 100%
Normalized initial rate for conversion of Rebaudioside A [7]: 100%
Ratio between initial rates for the conversion of Rebaudioside A and Rebaudioside D [8]: 1.67
Normalized initial rate for conversion of Rebaudioside A [9]: 100%
Ratio between initial rates for the conversion of Rebaudioside A and Rebaudioside D [10]: 1.67
